Experiments:
tobacco plants [1] = test: Germination tests of tobacco seeds in the presence of CL 299,263 (imazamox); format: in vivo, Nicotiana tabacum; details: 2.5 μM CL 299,263
Procedure: Tobacco plants transformed with rationally designed AHAS genes as described in Example 8 above were also tested for cross-resistance to another herbicide, CL 299,263 (also known as imazamox).

tobacco shoots = test: Root formation of tobacco shoots on medium containing 0.25 μM imazethapyr; format: in vivo, Nicotiana tabacum cv. Wisconsin 38; details: 0.25 μM imazethapyr in medium
Procedure: FIG. 13 is a photograph showing the root development of tobacco plants transformed with the Arabidopsis AHAS gene containing either the Met124Ile or Arg199Glu mutation and a non-transformed control. Plants were grown for 18 days after transfer into medium containing 0.25 μM imazethapyr.
(§1) Leaf disc transformation of Nicotiana tabacum cv. Wisconsin 38 was performed as described by Horsch et al. (Science, 227: 1229-1231, 1985) with slight modifications. Leaf discs were cut from plants grown under sterile conditions and co-cultivated upsidedown in Murashige Skoog media (Sigma Chemical Co., St. Louis, Mo.) for 2-3 days at 25° C. in darkness with Agrobacterium tumefaciens strains containing plasmids pJK002, pJK003, or pJK004. The discs were blotted dry and transferred to regeneration Murashige Skoog medium with B5 vitamins containing 1 mg/L benzyladenine and 0.1 mg/l 1-Napthyl Acetic Acid, 100 mg/L kanamycin, and 500 mg/L cefotaxime (all obtained from Sigma).
Initially, transformants were selected by kanamycin resistance conferred by the nptII gene present in the transformation vector. Shoots derived from the leaf discs were excised and placed on fresh Murashige Skoog hormone free media containing cefotaxime and kanamycin.
Kanamycin-resistant tobacco shoots were transferred to medium containing a 0.25 μM imazethapyr. […]

tobacco plants [2] = test: Spraying of transformed tobacco plants with imazethapyr; format: in vivo, Nicotiana tabacum cv. Wisconsin 38; details: twice the field rate (100 g/ha) of imazethapyr
Procedure: as §1
Kanamycin-resistant tobacco shoots were transferred to medium containing a 0.25 μM imazethapyr.

Arabidopsis AHAS protein [3] = details: increasing concentrations of imazethapyr, 5% DMSO; FIGS. 7, 9, 10, 11
Procedure: (§2) The enzymatic properties of wild-type and variant AHAS produced in E. coli were measured by a modification of the method of Singh et al. (Anal. Biochem […]:173-179, 1988) as follows:
(§3) A reaction mixture containing 1× AHAS assay buffer (50 mM HEPES pH 7.0, 100 mM pyruvate, 10 mM MgCl2, 1 mM thiamine pyrophosphate (TPP), and 50 μM flavin adenine dinucleotide (FAD)) was obtained either by dilution of enzyme in 2× assay buffer or by addition of concentrated enzyme to 1× AHAS assay buffer. All assays containing imazethapyr and associated controls contained a final concentration of 5% DMSO due to addition of imazethapyr to assay mixtures as a 50% DMSO solution. Assays were performed in a final volume of 250 μL at 37° C. in microtiter plates. After allowing the reaction to proceed for 60 minutes, acetolactate accumulation was measured […] as described by Singh et al., Anal. Biochem 171:173-179, 1988.

Arabidopsis AHAS protein [4] = details: no herbicide
Procedure: (a) specific or catalytic activity for conversion of pyruvate to acetolactate (expressed as units/mg pure AHAS, wherein a unit of activity is defined as 1 μmole acetolactate produced/hour), or for condensation of pyruvate and 2-ketobutyrate to form acetohydroxybutyrate (expressed as units/mg pure AHAS, wherein a unit of activity is defined as 1μ mole acetohydroxybutyrate produced/hr.;
as §2, §3

Molecule: COCc1cnc(C2=NC(C)(C(C)C)C(=O)N2)c(C(=O)O)c1 (stereo not drawn) [CL 299,263, imazamox]
- effect on wild-type tobacco plants (tobacco plants [1]): severe stunting and bleaching

Molecule: CCc1cnc(C2=NC(C)(C(C)C)C(=O)N2)c(C(=O)O)c1 (stereo not drawn) [imazethapyr]
- root formation of non-transformed tobacco shoots (endogenous wild-type AHAS) (tobacco shoots): not able to initiate root formation

B1: Arg199Glu: Arabidopsis AHAS variant (and gene) with Arg199Glu mutation, corresponding to maize Arg128Glu; vector pJK004 (protein, UniProt P17597 56-670, looked up, variant R199E)
Acetolactate synthase, …: SSSPSSISAVLNTTTNVTTTPSPTKPTKPETFISRFAPDQPRKGADILVEALERQGVETVFAYPGGASMEIHQALTRSSSIRNVLPRHEQGGVFAAEGYARSSGKPGICIATSGPGATNLVSGLADALLDSVPLVAITGQVPREMIGTDAFQETPIVEVTRSITKHNYLVMDVEDIPRIIEEAFFLATSGRPGPVLVDVPKDIQQQLAIPNWEQAMRLPGYMSRMPKPPEDSHLEQIVRLISESKKPVLYVGGGCLNSSDELGRFVELTGIPVASTLMGLGSYPCDDELSLHMLGMHGTVYANYAVEHSDLLLAFGVRFDDRVTGKLEAFASRAKIVHIDIDSAEIGKNKTPHVSVCGDVKLALQGMNKVLENRAEELKLDFGVWRNELNVQKQKFPLSFKTFGEAIPPQYAIKVLDELTDGKAIISTGVGQHQMWAAQFYNYKKPRQWLSSGGLGAMGFGLPAAIGASVANPDAIVVDIDGDGSFIMNVQELATIRVENLPVKVLLLNNQHLGMVMQWEDRFYKANRAHTFLGDPAQEDEIFPNMLLFAAACGIPAARVTKKADLREAIQTMLDTPGPYLLDVICPHQEHVLPMIPSGGTFNDVITEGDGRIKY
- resistance of transformed tobacco plants to spraying with imazethapyr (tobacco plants [2]): resistant
- resistance of enzymatic activity to imazethapyr (PURSUIT) (Arabidopsis AHAS protein [3]): improved levels of resistance
- Specific Activity (Arabidopsis AHAS protein [4]; b134 expresses specific activity as units/mg pure AHAS, 1 unit = 1 μmole acetolactate produced/hour): 114
- % Catalytic Activity as Compared to Wild Type (Arabidopsis AHAS protein [4]; relative to wild-type AHAS): 114%

From patent US6576455B1, “Structure-based designed herbicide resistant products” (priority 1995, dated 2003)
